Reference: a protein production outcome set (Wang et al. 2014)

Experiment: label from the status in PepcDB records
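Further: failed if final PepcDB status was selected cloned or expressed and not failed if soluble or beyond.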

Sequence | protein production
MVSVTFEPVGKKVEDEPDTILEIARRNGVLIRSDCGGKGVCGKCKVVVVDYRGSLSDITDHERKHLIEEEISKGYRLACQARVEEGRATIFIPPESRLERRKVAGLTIEKEVELNPAVRKVYAEIQPPSIEDQLPDYDRLTRALGDFSLDLETLSEMPKLLREAEWRVTATFWNGRLIDLEKGDVSDRCYGVAVDVGSSKIICHLVDLKSGETIATGYSDNPQVAYGEDIVSRITYASKSAENRKRLQTVVVETVNQIIAELCNESGVDLRHVYEVMIVGNSVMHHLFFGIEPRFIGVSPFTPAVRRGVSFPAEDVGLRINRKGYVSSLPLVAGFVGADAVANIAITGIHKAEEISMVIDIGTNTEIVIGNREKLGVCSAPSGPAFEGAHITFGMKAISGAIDSVRIERDEVIYTTIDNAKAKGLCGTGLIDLIAELYRNGIINRNGKFVKDHSRIIVDGVPKFVVAKAEETEFGKPITVSEKDINELLMAKGAIKSGWMILSERLGIEPDKIERIYLAGSFGRHINVENAKVIGLLPDIPSEKITFAGDTAVGGAKMALKSVRVRDEMEDVVSRLNYVELSVEKNFYSVFVRAIPI | not failed
MQQPTASVVSYVAEYHKATETTMGRYKKVIEITGHDEVAAKLLEGLIDAGTRYFSKVVEMEHRMASARFRLDGEELRELTETLDRSRRLAHESLISSLHVFNRYIVKEYGEELKEAGIEGGIFPKPEANRDRIAIADWAGELLTGIYENRHR | not failed
MDPDNRVRQRAVKTLGKRGNPDVLEDLMEALKDSRQPVQEAASEALRKIIAASDSVPVLVKALDATDRNVRKAAIEALWKAGTPEAIPPLLRELDDADWYLRSRAADALADIASPEAALGLIKVMDIHDSPVKKIIVNALGKIGTVEAVEGLVKALEDLEHHHHHH | not failed
MLVLILSSGVSVAIATETNDLSIAAVLISPSDVVFAKEANTIVVYGITNSGTENLTNITVDVYASDVSGTVPVNTETISSLAGGGTTTIFITDPTIRDLQGSTVTYTAVIDPDNLIPETNEANNNRSSAAVPVRYNGYKGKRYWEGASDITTKHTYDFNGDVSSSSQPSTSYRSQGAWSNGRTETWGGSVPNPDLPSGSTIEQALLYVAYNWDETPGGYPWWNVSFNNVIIDYGNISTGNGILYTDMSNFGLYADYEYGLVVYDVTNLYNSTDYNGLKMYPYNSTFADLTALYPSTLVIIYQNPNMTRKQIFINEECDELGVSESTYGTTPEEATAYAPFTGMSIDVSNVSNATLYSFAGSAGPDEGNLLFNGNTVATNAWHGDAYTASASVFDVKNYINSTGNEAGIQGTVSGGMDVLQQILVVEYVESVPSALDANLTANVTSGTAPLTVQFTDLSEGNVTNWLWDFGDNTNSTSQNVSHTYNSPGTYTVNLTVTGPEGSDSEVKTDFITVSDSNVSAPVAAFTATPLVGTAPLQVAFTDQSTNSPTEWKWEYNNGSGWVEFSNETNASYSFATAVPYDIQLTVSNSGGSDDETKLHYISVGNVREPLNTVQSGTVSGDLYISSPTTWPATEVNQTFTLPAAAVGNIQWAKLYVNTYSGSAANTYALSSTVKLDGDGDSTYESTLGTETMDIASLTNGASFPLNDHVNKVYSDYEAQYDVTSLISAANPAINVKSEAISGKNFDGRIKGVTLVVAYNNTSSTDQTYYWVNHGGDWSSPANGNTIFDTSGLSSGWVSAESKIRYFSYSDANYTFNGVAKTGSTPSNYSGLNTWDVTDNITAGQSSTLAYSKGSGSYKTTLATLKVKYETPGFSNKVTLGDTSPVSPTLASLNGRLYLAWKGDGNNNLNVMYSADNGMTFGNKYTSSETSPESPALCVHNNSLYIAWKGNGSNYLNVAQVTMNGDNITDFSNKVTLGDTSPVSPALASLNGRLYLAWKGDGNNNLNVMYSADNGMTFGNKYTSSETSPESPALCVHNNSLYIAWKGNGNNYLNVAQVTMNGDNITDFSNKVTLGDTSPVSPALASLNGRLYLAWKGDGNNNLNVMYSADNGMTFGNKYTSPETSPESPALCVHNNSLYIAWKGDGNNNLNVAQVI | failed
MYVFFSKDYLSKQEQSIWEQSFLRGNLMKAVVIGAGEVGYHIAKFLSLTHDVIVIENDEDALRRADELDVQVVEGNGANADILASVLPDVDILVAVTGVDEVNIVACMTAKLILRAHPGWKETKTIARVSNPDYIDVPVTSRAQVGVDIMICPELALASEVAEVLSNPSAIDAEMFAGGKVQMMEFAIRPDNRLVGKRMQDIELEDCCIVSAIFRNNDIIIPHGDDFIKANDHMVVVGKPRAMADLENVFGNEGPHRNRILLIGCGIVGFYLAKIIDKDENADLKVIEYRKSRCIEVAEMLENALILNGDGTDVNLLREENIEDMDVVIAVTDNDEKNLLCSLLAKQMGAKKVIARADRSDYVPLFEMVGIDIAVSPREATVNEVLKLTMGKGIEALATIEGEKAEIIEYTASGQSKIVGKPLSKIKFPKGAIVTMVVHDDDVIIPRGEFIIREGDRVIIFALSSAVRSVEKLFK | failed
MSAMGAGPDHLFNLRNNFYLGAYQTAINNSEIANLSPENAVERDCLVFRSYIALGSYQLVISEIDESAATPLQAVKLLAMYLSTPQNKESTISSLKEWLADSTIGNNDTLRLIAGIIFMHEEDYNETLKHTHAGGTMDLYALNVQIFIKMHRAEYAEKQLRVMQQIDEDHTLTQLASAWLNLAVGGSKIQEAYLIFEDFSEKYPMTCLILNGKAVCCMQMGNFDEAETLLLEALNKDAKDPETLANLVVCSLHVGKSSSRHLSQLKLSHPEHILVKRVSSAEDNFERAVQLVA | failed
MNFLNENEKKITLIPPPEFVQYVGGHFEEVGKEFMQYFIEIGNLKSNETVLDVGCGIGRMAVPLMNYLSDDGTYYGFDLFNKGITWCKNNISTRRNNFHFEHVDIYNQFYNPDGKEDASQYKFPYEDESFDFIFLTSVFTHLLPKELEHYVREIARVLKKDGRCFITFFLINPESSYYLNAGLSPLGFYHQIDNCYVLNKDIPNFAVAYPEEDIRTLLNKYGLEMQTPPHYGSWCGRTEHTSYQDIILAQKISER | failed
MARGEGEFYLAGRRLTGFLSAMTYAATTYSSFMIVGLVGLAYFTGIGSLVFELAYLVATVILLSLFSRRVWRMSRERGWVSPGEMLADLLGSPWVALTASLVFLVSLVPYASAQLKGIAETIVAIAGYSPGDNTAYMVAVGVALLILLAWSLLAGVRGVVLTDAFQGLWMLTAGSLLFLWLASRVFSKSGASEVLSAMESAGLFDMWSATLLIGFVTPWVFFAVTNPQVVQRLYMPKDEESLRRMILYFFLFGLYYTVLVVAIGFLARAGVELGILSIEPQGRDQVTPQLLSLAHPLLAALVFTSIVAASVSTADSIILALASSASRDIGLLVLRLDEKGRLRLGYAAAALFTVLMAVFAATRIGYIVQLSVLSSVMLLGLAPVTIAAWVGLRVHPALAVASIATGPVLVAANVLYSLAVGGEVSLSPAKQVLGVPISVWVLAISLALTAAGIALVRGRR | failed
MAVMDPWLIWLIVSAVLVLAEIFTLTAALGMLGVAALITAGSAAAGLSTPFQFLVFTVVSAVTLFFLRPVALRHLVQPQTQRFGVDALVGQAAYVVSDVTGREGRVRIGGEEWTARSYDETLVIPRGATVDVLEISGTTAFVYPRE | failed
MLNHPTHERLIELGLTGMAKAFEEQRRSPDLEALPFEDRIGLLVDREAAERDTRRLTTRLKIAALRQTACVEDVDLRTPRGIDRAVFAKLVEGRWIDRHENLLVTGATGLGKSWLACALGHKACRDNRSVLYHRVPRLFEALALARGDGRYARLLKSLGRAQLLILDDWGLSVLTAAERRDLLEILEDRHGRASTIVTSQLPVDTWHGAIGDPTVADAILDRLVHNAHRLQLTGESMRKRSAKTITLDGQPEH | failed
MNPILNLIISFIALLWAANHLVAGSSGLAIRFQLSPLMIGLTIVALGTSAPELFISIISSLKDKNDLAIGNAIGSNIANIGLILGIIILIKPTSFHFNKLKKVYPILIIVMLFAYSLILDGYLGTIDGCLFLIGCIAVLCYFIYLASHSPKRDLSVNEFRPAILSYRSTPSNLLSIAIGLLILPICSKYLVYNASEIAKWAGISEFTIGLTIIAIGSSLPELTTALVAAIKGEDSIAIGTIIGSNIYNLLLILALPGLLNPTKISSVVLWRDMPVMLSITLLLLFLNYYYQKKTSSWPGGILLLVYFCYMASLIINAHS | failed
MNIEEAKELVDNSKFYGKTSSVIKAEVRDIIDQLNQPKPEVPQCVADWIEECKEEDLTLKGLFSNSDMPAKIFDWIFGSDENCRLMAEAWINGYTVEKEKLYTVDLPNGQPLVRGINTLYFSQNLATENVKLTESEIRKDFEWAWQFAEEVTE | failed
DTPEPYSEQDLWDWLRNSTDLQEPRPRAKRRPIVKTGKFKKMFGWGDFHSNIKTVKLNLLITGKIVDHGNGTFSVYFRHNSTGQGNVSVSLVPPTKIVEFDLAQQTVIDAKDSKSFNCRIEYEKVDKATKNTLCNYDPSKTCYQEQTQSHVSWLCSKPFKVICIYISFYSTDYKLVQKVCPDYNYHSDTPYFPSG | failed
MFTRRGDQGETDLANRARVGKDSPVVEVQGTIDELNSFIGYALVLSRWDDIRNDLFRIQNDLFVLGEDVSTGGKGRTVTREMIDYLEARVKEMKAEIGKIELFVVPGGSIESASLHMARAVSRRLERRIVAASKLTEINKNVLIYANRLSSILFMHALLSNKRLNIPEKIWSIHRVS | not failed
MSNSSMSVVILAAGKGTRMYSDLPKVLHPLAGKPMVQHVIDAAMKLGAQHVHLVYGHGGELLKKTLADPSLNWVLQAEQLGTGHAMQQAAPHFADDEDILMLYGDVPLISVDTLQRLLAAKPEGGIGLLTVKLDNPSGYGRIVRENGDVVGIVEHKDASDAQREINEINTGILVANGRDLKRWLSLLDNNNAQGEFYITDIIALAHADGKKIATVHPTRLSEVEGVNNRLQLSALERVFQTEQAEKLLLAGVMLLDPSRFDLRGELTHGRDITIDTNVIIEGHVILGDRVRIGTGCVLKNCVIGDDSEISPYTVLEDARLDANCTVGPFARLRPGAELAEGAHVGNFVEIKKARLGKGSKAGHLSYLGDAEIGAGVNIGAGTITCNYDGANKFKTIIGDDVFVGSDTQLVAPVTVANGATIGAGTTVTRDVAENELVISRVKQVHIQGWKRPVKKK | not failed
MSDRDSWISNLGFVLAAVGGAAGLGNIWRFPWLTAGNGGSAFLIVYLLVVVGIGVPGLLAEFVLGRCGRQTPTAALRSLTGSRWGSWLGAFNVLTTLVILSFYSVVGGWILRYTLVSPVGTYFGQPQQYFGAMSFGLEAVAFHLLFLGIVAAIVFFGISNGIERVSKVMLPGVVIILLGLAVWTATQPGTAAGYAFYLSFDAEYLAANFLSVIGPAAGQALFTLSLGAGVMLTYASYLDDNASLPRDTLVIAVSNTFIGVLAGLVVIPLLFSQGVDPGQGGPGALFVALATAFATLPGGELVATAFFVTVLMAAVTSGISLLETPVATLVDSFGVPRRRATVLVSVLLAATGSGLALTSSVFQFVSGTLADLMLTVGLFAFTVIVGWLLRGDALAEFRAGTARFEWLAKPWLLTVSWVLPVVVLFLLTNTLASLAGISVGLGGRVIIAVIGTVALAVVVRNGSRTDRLSSH | failed
MFKIQEVRELIKLIDSSNIDEFEYKKDGTTIKMKKRGNEVVAVQAPVAKQAVQPVAPVEVETTVAAAQVEVPKQEEKKAVQNENLHKITSPMVGTFYSSSSSSPDTPPYVSVGDRVSKDSIVCIVEAMKLFNEIDADVDGEIVEILVNNGQLVEYGQPLFLVKA | failed
MTEDQAFWNAFAPDYAAAEQASRLPIAHDVIAWLRSTQLLPAHSAVDLAAGTGRYAVQMMPWVQELTLIDWSSAMLAFAKERMHQQADTKAQFIVADWRKLHKPLNADMLFVSQLPTLKPQDLKMLMNWASQTVVLNFQTAQSDALLEQAASLLGLQLPPVYQADPARMISFKVWLTAQRIPFQSHSLTYEIEEQTTLSDLLPDLATPIGLKTAASLAKAITGHENTHVQVTDRLTYTYTQLVWHVLEHHHHHH | failed
MSYLDTATDLPNQTLFLEYLNIALSNARRHHAQVGVLLCQINNWSDLKRKRGDAVANAFLQEAGQKLKSNLRNGDIVSRWDKDEFIFLVSKVQDTSSLLGIAQRLMKPVLAPVTAGGRPFQPEITYGVALYPVDGEQVNDLIGHIRENLQQLLPQPTNPGSGLEHHHHHH | not failed
MSDVTVVAMVTNAYPVNEFQRSSGGTGKVRNIMLEDGTGSIRMALWDSDAETEISEGDVVKLIHGYAKESGEYMDLSTGRFGRLEHHHHHH | failed
